According to patent publication US20120263644A1:

Biological target: leukocyte function antigen-1 (LFA-1), composed of CD11a and CD18, on human white blood cells (human) (UniProt P20701)
Experiment: cell-based or functional assay

Sequence of leukocyte function antigen-1 (LFA-1), composed of CD11a and CD18, on human white blood cells (human) (P20701 26-1170, chain 1 of 2): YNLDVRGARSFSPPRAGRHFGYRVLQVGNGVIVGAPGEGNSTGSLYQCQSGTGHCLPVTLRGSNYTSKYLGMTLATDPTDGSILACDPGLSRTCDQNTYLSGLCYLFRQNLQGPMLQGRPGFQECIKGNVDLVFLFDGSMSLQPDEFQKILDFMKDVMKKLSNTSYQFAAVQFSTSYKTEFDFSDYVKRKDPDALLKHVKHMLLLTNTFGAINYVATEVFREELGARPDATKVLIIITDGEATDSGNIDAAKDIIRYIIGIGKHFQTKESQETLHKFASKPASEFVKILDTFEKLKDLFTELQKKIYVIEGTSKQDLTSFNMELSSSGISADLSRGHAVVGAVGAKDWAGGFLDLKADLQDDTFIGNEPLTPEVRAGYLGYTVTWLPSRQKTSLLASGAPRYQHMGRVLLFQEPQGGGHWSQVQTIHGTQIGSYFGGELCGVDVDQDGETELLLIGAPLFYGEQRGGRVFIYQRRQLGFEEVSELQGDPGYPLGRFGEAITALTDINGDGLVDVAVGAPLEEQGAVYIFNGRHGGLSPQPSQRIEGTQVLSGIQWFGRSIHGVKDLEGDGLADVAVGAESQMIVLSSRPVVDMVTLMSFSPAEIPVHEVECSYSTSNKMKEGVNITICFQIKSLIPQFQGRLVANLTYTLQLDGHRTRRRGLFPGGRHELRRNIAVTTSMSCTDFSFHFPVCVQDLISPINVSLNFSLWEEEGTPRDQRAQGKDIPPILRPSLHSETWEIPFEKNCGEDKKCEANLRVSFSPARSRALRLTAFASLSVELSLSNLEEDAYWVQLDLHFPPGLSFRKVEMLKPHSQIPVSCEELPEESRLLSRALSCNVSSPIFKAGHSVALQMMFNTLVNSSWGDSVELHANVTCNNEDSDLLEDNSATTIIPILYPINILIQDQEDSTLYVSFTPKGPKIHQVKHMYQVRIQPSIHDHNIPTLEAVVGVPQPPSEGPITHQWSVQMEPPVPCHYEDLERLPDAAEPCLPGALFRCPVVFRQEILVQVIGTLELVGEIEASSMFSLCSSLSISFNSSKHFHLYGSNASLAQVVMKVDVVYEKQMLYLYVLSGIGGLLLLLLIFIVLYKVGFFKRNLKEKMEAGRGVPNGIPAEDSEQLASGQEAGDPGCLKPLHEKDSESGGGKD
Sequence of leukocyte function antigen-1 (LFA-1), composed of CD11a and CD18, on human white blood cells (human) (P05107 23-769, chain 2 of 2, further chain): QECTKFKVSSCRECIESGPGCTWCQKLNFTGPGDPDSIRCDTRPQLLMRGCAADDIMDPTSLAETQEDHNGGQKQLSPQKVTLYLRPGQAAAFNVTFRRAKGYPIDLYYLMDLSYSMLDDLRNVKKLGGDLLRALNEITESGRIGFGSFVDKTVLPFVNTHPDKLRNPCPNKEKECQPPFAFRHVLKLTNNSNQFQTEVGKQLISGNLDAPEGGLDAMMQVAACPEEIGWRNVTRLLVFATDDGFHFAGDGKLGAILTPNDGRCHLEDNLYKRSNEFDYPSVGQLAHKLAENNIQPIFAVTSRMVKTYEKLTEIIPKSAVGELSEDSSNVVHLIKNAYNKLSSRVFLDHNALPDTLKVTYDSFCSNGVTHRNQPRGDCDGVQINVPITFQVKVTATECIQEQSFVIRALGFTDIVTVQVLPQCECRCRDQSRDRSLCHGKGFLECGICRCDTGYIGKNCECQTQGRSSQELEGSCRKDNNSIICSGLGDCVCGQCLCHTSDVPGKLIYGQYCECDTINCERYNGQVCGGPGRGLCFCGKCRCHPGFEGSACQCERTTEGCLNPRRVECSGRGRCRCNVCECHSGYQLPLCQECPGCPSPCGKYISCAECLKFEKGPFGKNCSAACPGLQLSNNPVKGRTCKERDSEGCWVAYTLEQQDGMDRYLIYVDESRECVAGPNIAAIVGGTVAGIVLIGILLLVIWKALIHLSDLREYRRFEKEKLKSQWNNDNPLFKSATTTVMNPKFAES

Efalizumab (RAPTIVA), anti-LFA-1 mAb (antibody)
IC50 of inhibition of proliferation of Jurkat cells (CellTiter Glo): 5000 µg/mL
